Entries after “also recorded” stand apart in the source; their conditions may differ.
What was measured:
S. suis strain 7711 = test: ΔPlySs1 growth inhibition in BHI broth; format: cell-based, Streptococcus suis; details: overnight, 96-well plate
Protocol: The optical density of each sample was measured continuously overnight in 96-well plate format. Overall, bacterial growth was delayed in a dose-dependent manner. However, for enzyme-concentrations that were sufficient to induce lysis in buffered solutions (130 and 50 μg/ml), the effect was quite minimal here. […] For all of the treated samples, one will note that the final optical densities are actually higher than that of the untreated sample. This is an artifact of the accumulation of aggregated bacterial debris that occurred in the presence of lytic enzyme.
Truncated PlySs1(ΔPlySs1) lysin activity was determined against different cell types. Given the above experiments, the following optimal buffering conditions were employed for all further in vitro experiments with ΔPlySs1: 20 mM phosphate buffer, pH=7.8, 2 mM EDTA. A range of lysin concentrations, from 6.5-130 μg/ml, were introduced to live S. suis cells in this buffer. Three strains were considered particularly relevant: 7711, the serotype 7 strain that encodes PlySs1; S735, the serotype 2 reference strain; and 7997, a highly virulent serotype 9 strain. In terms of bacterial viability, only the highest PlySs1-concentration (130 μg/ml) led to a >90% decrease in CFUs for 7711, S735, and 7997 after 1 hr treatment (TABLE 2). The lysin was also tested against actively-dividing cells in broth culture (strain 7711) (FIG. 20).

S. epidermidis HN1292 = test: ΔPlySs1 OD600 lysis, 1 hr, optimal buffering conditions; format: cell-based, Staphylococcus epidermidis
S. dysgalactiae 21597 = test: as above; format: cell-based, Streptococcus dysgalactiae
MRSA strain MW2 = test: murine septicemia model, MRSA infection alone; format: in vivo, FVB/NJ mice; details: PlySs2 1 mg
Protocol: The Rockefeller University's Institutional Animal Care and Use Committee approved all in vivo protocols. A systemic infection model described in Daniel, A. et al., was used to test for the in vivo efficacy of PlySs2 against multiple gram-positive bacteria. Briefly, 4-5 week old female FVB/NJ mice (weight range 15 to 20 g) were obtained from The Jackson Laboratory (Bar Harbor, Me.). After a period of acclimation, mice were injected intraperitoneally (IP) with 0.5 ml of mid log-phase (OD600 0.5) bacteria diluted with 5% hog gastric mucin (Sigma) in saline. Bacterial suspensions contained ˜5×10^5 CFU/ml of MW2, a PVL toxin-encoding MRSA strain, ˜1×10^7 of MGAS5005, an M1 serotype of Streptococcus pyogenes that is virulent in humans and mice (Musser), or a combination of both bacteria simultaneously at the above concentrations for the mix infection experiments. Actual bacterial inoculation titers were calculated by serial dilution and plating to Columbia blood agar plates for each experiment. Mice became bacteremic within one to three hours and contained MRSA and/or S. pyogenes in their organs (including spleen, liver, kidney, and heart/blood) ([50], and unpublished observations). […] The survival rate for each experimental group was monitored every 12 hours for the first 24 hours then every 24 hours up to 10 days post-infection. The data were statistically analyzed by Kaplan Meier Survival curves and a Logrank test performed for 95% confidence intervals using the Prism computer program (GraphPad Software; La Jolla, Calif.).
To determine if the broad lytic activity of PlySs2 could provide in vivo protection from infection with gram-positive pathogens, either alone or as a mixed infection, FVB/NJ mice were intraperitoneally injected with ˜5×10^5 CFU of MRSA strain MW2, ˜1×10^7 of S. pyogenes strain MGAS5005 and/or both bacteria simultaneously at the concentrations above. […] Mice were then monitored for survival over ten days. […]

MSSA strain 8325 = test: resistance assay, exposure to incrementally increasing concentrations; format: cell-based, Staphylococcus aureus; details: MSSA 8325; concentration doubled daily from 1/32 to 4× MIC over 8 days
[1] = PlySs2 solubility / concentrated solution; format: physicochemical; details: ≈20 mg/ml solution
Protocol: The aforementioned preparation led to a highly pure lysin preparation in just two chromatographic steps (FIG. 6). With a predicted pi of 9.01, PlySs2 flowed directly through the DEAE column at pH=7.4 leaving the bulk of the contaminant proteins stuck to the DEAE column. PlySs2 eluted cleanly in the shoulder of the flow through and at 17 mM NaCl, being purified from proteins that rapidly flowed through the CM resin. This preparation yielded ≈60 mg of protein per liter of E. coli culture at ≈1.5 mg/ml with >99% purity. The yield increased to ≈150 mg per liter of E. coli culture at ≈2.0 mg/ml with >90% purity when the CM column step was forwent. If necessary, the latter product was: dialyzed (into 5 mM PB, 15 mM NaCl); lyophilized; reconstituted (at 10% of the original volume); centrifuged; and filter-sterilized (to remove any insoluble material). […] PlySs2 can be produced more efficiently, and at a higher concentration, than many published lysins (Daniel A et al (2010) Antimicrob Agents Chemother 54(4):1602-1612; Wang, Y. et al (2009) Curr Microbiol 58(6):609-615; Nelson, D et al (2006) Proc Natl Acad Sci USA 103(28):10765-10770).
PlySs2 is more tractable and stable than previously developed lysins. PlySs2 preparation is straightforward, yielding large quantities in few steps. In addition, a highly soluble lysin is essential, because it allows for ready use at high concentrations. […]

B1: ΔPlySs1: truncated PlySs1 lysin, SEQ ID NO:2, N-terminal 254 amino acids: only N-terminal enzymatic and central binding domains (protein, listed as Streptococcus suis)
chain: MTINLETSIRWMSDRVGKVSYSMDYRNGPNSYDCSSAVYYALMAGGAISAGWAVNTEYMHDWLIRNGYVLVAENKPFNAQRHDVCILGKRGYSSGAGGHVVIFVDNVNVIHCNYARNGISIDNYNQVHRGMYYYLYRPANQPSISNKSLDQLVKETLAGVHGNGDTRKASLGSQYEAVMAVINGKASASEKSDEELAREVLAGKHGAGEDRKRSLGPRYEPVQAKVNELLKAKEKPSETAKNEPQTVQFKEDGDL
S. suis strain 7711
  MIC / growth inhibition: could not inhibit S. suis growth outright; also recorded: a MIC could not be assigned
S. epidermidis HN1292; 6.5 μg/ml
  lysis value after 1 hr (treated/untreated OD600 ratio): 1.04
S. epidermidis HN1292; 13 μg/ml
  lysis value after 1 hr (treated/untreated OD600 ratio): 1.00
S. epidermidis HN1292; 30 μg/ml
  lysis value after 1 hr (treated/untreated OD600 ratio): 0.96
S. epidermidis HN1292; 65 μg/ml
  lysis value after 1 hr (treated/untreated OD600 ratio): 0.94
S. epidermidis HN1292; 130 μg/ml
  lysis value after 1 hr (treated/untreated OD600 ratio): 0.87
S. dysgalactiae 21597; 6.5 μg/ml
  lysis value after 1 hr (treated/untreated OD600 ratio): 0.26
S. dysgalactiae 21597; 13 μg/ml
  lysis value after 1 hr (treated/untreated OD600 ratio): 0.18
S. dysgalactiae 21597; 30 μg/ml
  lysis value after 1 hr (treated/untreated OD600 ratio): 0.12
S. dysgalactiae 21597; 65 μg/ml
  lysis value after 1 hr (treated/untreated OD600 ratio): 0.10
S. dysgalactiae 21597; 130 μg/ml
  lysis value after 1 hr (treated/untreated OD600 ratio): 0.09

B2: PlySs2: Streptococcus suis prophage lysin, SEQ ID NO:3; N-terminal CHAP domain and C-terminal SH3-type 5 domain (protein, listed as Streptococcus suis)
chain: MTTVNEALNNVRAQVGSGVSVGNGECYALASWYERMISPDATVGLGAGVGWVSGAIGDTISAKNIGSSYNWQANGWTVSTSGPFKAGQIVTLGATPGNPYGHVVIVEAVDGDRLTILEQNYGGKRYPVRNYYSAASYRQQVVHYITPPGTVAQSAPNLAGSRSYRETGTMTVTVDALNVRRAPNTSGEIVAVYKRGESFDYDTVIIDVNGYVWVSYIGGSGKRNYVATGATKDGKRFGNAWGTFK
MRSA strain MW2; IP 3 h post-infection, ClyS 1 mg
  survival over 10 days (mice surviving/total): 16/18
MRSA strain MW2
  mice died at forty-eight hours (dead/total): 2/18
MRSA strain MW2; ClyS 1 mg
  survival over 10 days: 88%
MSSA strain 8325
  development of resistance: Neither S. aureus strain developed resistance; also recorded: None of MRSA strain MW2, MSSA strain 8325, nor S. pyogenes strain 5005 developed resistance
[1]
  activity after lyophilization and reconstitution to concentrated solution: retained the concentration-adjusted activity

Reference: patent publication US11111484B2, “Streptococcus bacteriophage lysins for detection and treatment of gram positive bacteria” (priority 2011, dated 2021)
